Assay results: FireProtDB (doi:10.1021/bi9815243)

B1: Guanyl-specific ribonuclease T1, P00651 (parent)
chain: MMYSKLLTLTTLLLPTALALPSLVERACDYTCGSNCYSSSDVSTAQAAGYQLHEDGETVGSNSYPHKYNNYEGFDFSVSSPYYEWPILSSGDVYSGGSPGADRVVFNENNQLAGVITHTGASGNNFVECT
B2: Guanyl-specific ribonuclease Sa, P05798 (parent)
chain: DVSGTVCLSALPPEATDTLNLIASDGPFPYSQDGVVFQNRESVLPTQSYGYYHEYTVITPGARTRGTRRIITGEATQEDYYTGDHYATFSLIDQTC

Variants of: B1
Conditions: Aspergillus oryzae (strain ATCC 42149 / RIB 40); pH 7; 25 °C; Urea; CD; MOPS 30 mM; reversible: yes (>95%); structure 1RN1; whole UniProt chain shown

Variant | ddG of mutation (higher = less stable) | denaturant m value | denaturant midpoint (higher = more stable) | unfolding free energy
MMYSKLLTLTTLLLPTALALPSLVERACDYTCGSNCYSSSDVSTAQAAGYQLHEDGETVGSNSYPHKYNAYEGFDFSVSSPYYEWPILSSGDVYSGGSPGADRVVFNENNQLAGVITHTGASGNNFVECT [N70A] | 2 kcal/mol | 1.17 kcal/mol/M | 3.51 M | 4.12 kcal/mol

Same assay, conditions: Aspergillus oryzae (strain ATCC 42149 / RIB 40); pH 7; 25 °C; Urea; Fluorescence; MOPS 30 mM; transition: 2; reversible: Yes; structure 1RN1; whole UniProt chain shown

Variant | ddG of mutation (higher = less stable) | denaturant m value | denaturant midpoint (higher = more stable) | unfolding free energy
MMYSKLLTLTTLLLPTALALPSLVERACDYTCGSNCYSSSDVSTAQAAGYQLHEDGETVGSNSYPHKYNAYEGFDFSVSSPYYEWPILSSGDVYSGGSPGADRVVFNENNQLAGVITHTGASGNNFVECT [N70A] | 2 kcal/mol | 1.17 kcal/mol/M | 3.51 M | 4.12 kcal/mol

Same assay, conditions: Aspergillus oryzae (strain ATCC 42149 / RIB 40); pH 7; 50.8 °C; Thermal; CD; MOPS 30 mM; reversible: yes (>95%); structure 1RN1; whole UniProt chain shown

Variant | ddG of mutation (higher = less stable)
MMYSKLLTLTTLLLPTALALPSLVERACDYTCGSNCYSSSDVSTAQAAGYQLHEDGETVGSNSYPHKYNAYEGFDFSVSSPYYEWPILSSGDVYSGGSPGADRVVFNENNQLAGVITHTGASGNNFVECT [N70A] | 1.6 kcal/mol

Same assay, conditions: Aspergillus oryzae (strain ATCC 42149 / RIB 40); pH 7; Thermal; CD; MOPS 30 mM; reversible: yes (>95%); structure 1RN1; whole UniProt chain shown

Variant | Tm | change of melting temperature, mutant - wild type (higher = more stable) | unfolding enthalpy (van 't Hoff)
MMYSKLLTLTTLLLPTALALPSLVERACDYTCGSNCYSSSDVSTAQAAGYQLHEDGETVGSNSYPHKYNAYEGFDFSVSSPYYEWPILSSGDVYSGGSPGADRVVFNENNQLAGVITHTGASGNNFVECT [N70A] | 45.6 °C | -5.2 °C | 86.8 kcal/mol

Same assay, conditions: Aspergillus oryzae (strain ATCC 42149 / RIB 40); pH 7; Thermal; CD; MOPS 30 mM; transition: 2; reversible: Yes; structure 1RN1; whole UniProt chain shown

Variant | Tm | change of melting temperature, mutant - wild type (higher = more stable) | unfolding enthalpy (van 't Hoff)
MMYSKLLTLTTLLLPTALALPSLVERACDYTCGSNCYSSSDVSTAQAAGYQLHEDGETVGSNSYPHKYNAYEGFDFSVSSPYYEWPILSSGDVYSGGSPGADRVVFNENNQLAGVITHTGASGNNFVECT [N70A] | 45.6 °C | -5.2 °C | 86.8 kcal/mol

Variants of: B2
Conditions: Kitasatospora aureofaciens; pH 7; 48.4 °C; Thermal; CD; MOPS 30 mM; reversible: yes (>95%); structure 1RGG; whole UniProt chain shown

Variant | ddG of mutation (higher = less stable)
DVSGTVCLSALPPEATDTLNLIASDGPFPYSQDGVVFQSRESVLPTQSYGYYHEYTVITPGARTRGTRRIITGEATQEDYYTGDHYATFSLIDQTC [N39S] | 2.3 kcal/mol
DVSGTVCLSALPPEATDTLNLIASDGPFPYSQDGVVFQARESVLPTQSYGYYHEYTVITPGARTRGTRRIITGEATQEDYYTGDHYATFSLIDQTC [N39A] | 2.2 kcal/mol
DVSGTVCLSALPPEATDTLNLIASDGPFPYSQDGVVFQDRESVLPTQSYGYYHEYTVITPGARTRGTRRIITGEATQEDYYTGDHYATFSLIDQTC [N39D] | 1.5 kcal/mol

Same assay, conditions: Kitasatospora aureofaciens; pH 7; Thermal; CD; MOPS 30 mM; reversible: yes (>95%); structure 1RGG; whole UniProt chain shown

Variant | Tm | change of melting temperature, mutant - wild type (higher = more stable) | unfolding enthalpy (van 't Hoff)
DVSGTVCLSALPPEATDTLNLIASDGPFPYSQDGVVFQSRESVLPTQSYGYYHEYTVITPGARTRGTRRIITGEATQEDYYTGDHYATFSLIDQTC [N39S] | 40.4 °C | -8 °C | 73.5 kcal/mol
DVSGTVCLSALPPEATDTLNLIASDGPFPYSQDGVVFQARESVLPTQSYGYYHEYTVITPGARTRGTRRIITGEATQEDYYTGDHYATFSLIDQTC [N39A] | 40.8 °C | -7.6 °C | 70.4 kcal/mol
DVSGTVCLSALPPEATDTLNLIASDGPFPYSQDGVVFQDRESVLPTQSYGYYHEYTVITPGARTRGTRRIITGEATQEDYYTGDHYATFSLIDQTC [N39D] | 43.2 °C | -5.2 °C | 83.5 kcal/mol

Same assay, conditions: Kitasatospora aureofaciens; pH 7; Thermal; CD; MOPS 30 mM; transition: 2; reversible: Yes; structure 1RGG; whole UniProt chain shown

Variant | Tm | change of melting temperature, mutant - wild type (higher = more stable) | unfolding enthalpy (van 't Hoff)
DVSGTVCLSALPPEATDTLNLIASDGPFPYSQDGVVFQSRESVLPTQSYGYYHEYTVITPGARTRGTRRIITGEATQEDYYTGDHYATFSLIDQTC [N39S] | 40.4 °C | -8 °C | 73.5 kcal/mol
DVSGTVCLSALPPEATDTLNLIASDGPFPYSQDGVVFQARESVLPTQSYGYYHEYTVITPGARTRGTRRIITGEATQEDYYTGDHYATFSLIDQTC [N39A] | 40.8 °C | -7.6 °C | 70.4 kcal/mol
DVSGTVCLSALPPEATDTLNLIASDGPFPYSQDGVVFQDRESVLPTQSYGYYHEYTVITPGARTRGTRRIITGEATQEDYYTGDHYATFSLIDQTC [N39D] | 43.2 °C | -5.2 °C | 83.5 kcal/mol

Same assay, conditions: Kitasatospora aureofaciens; pH 2; Thermal; CD; MOPS 30 mM; transition: 2; reversible: Yes; structure 1RGG; whole UniProt chain shown

Variant | Tm | change of melting temperature, mutant - wild type (higher = more stable) | unfolding enthalpy (van 't Hoff)
DVSGTVCLSALPPEATDTLNLIASDGPFPYSQDGVVFQDRESVLPTQSYGYYHEYTVITPGARTRGTRRIITGEATQEDYYTGDHYATFSLIDQTC [N39D] | 23.3 °C | -4.7 °C | 50.3 kcal/mol
